Laboratory results published in article PMC6144805.

Molecular target: RecQ-ΔΔC (E. coli RecQ variant lacking both the WH and HRDC domains) (Escherichia coli)

Sequence of E. coli ssDNA-binding protein (SSB) (P0AGE0 whole entry): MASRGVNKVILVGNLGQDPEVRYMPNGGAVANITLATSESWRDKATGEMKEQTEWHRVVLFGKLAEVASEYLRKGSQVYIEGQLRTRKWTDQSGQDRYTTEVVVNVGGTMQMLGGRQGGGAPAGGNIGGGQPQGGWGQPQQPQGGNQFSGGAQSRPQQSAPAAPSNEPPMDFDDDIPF

“E. coli ssDNA-binding protein (SSB) (from UniProt P0AGE0 1-178) (natural protein)” gave an average unwinding processivity of RecQ-ΔΔC with SSB of 2.5 kb.
